The text below walks through data of paper PMC2889250.

Common to all, as to assay: SDS-PAGE
The target of test [1] is semisynthetic NaK channel (residues 19-110).
The target of test [2] is recombinant NaK channel.
The target in test [3] is recombinant NaK channel. This is another data set of the same source.

Read-outs that look alike come from different tables or passages of the source.

In test [1], “semisynthetic NaK channel (residues 19-110) (natural protein)” yielded a stoichiometry N of 4.
For “recombinant NaK channel (natural protein)”, the stoichiometry N in the test with recombinant NaK channel [2] and with recombinant NaK channel [3] was 4 each time.
